Numbering of substitutions follows the chain as printed.
T1: mouse CD40 (mouse, UniProt P27512 20-193, limits assumed)
T1 construct: Recombinant mouse CD40 protein for ELISA; The construct and tag are not described; also called mCD40
T1 sequence (looked up): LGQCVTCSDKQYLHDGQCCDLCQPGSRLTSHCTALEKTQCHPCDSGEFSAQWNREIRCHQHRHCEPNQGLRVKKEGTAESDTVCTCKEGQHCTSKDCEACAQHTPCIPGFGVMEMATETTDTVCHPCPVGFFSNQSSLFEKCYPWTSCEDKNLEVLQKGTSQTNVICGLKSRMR

B1: anti-CD40 antibody 39-K17 (antibody, V domains shown)
VH: QVQLQQPGAELVKPGASVKLSCTASGYIFTNYWMNWVKQRPGRGLEWIGRIHPSDSESLYNQKFKSKAILTVDKSSSTAYIQLSSLTSEDSAVYYCARSPLTKVVTTDFWGQGTTLTVSS
VL: EIVLTQSPAIMPASPGEKVTMTCSASSSVNYMHWYQQKSGTSPKRWIYDTSKLASGVPVRFSGSGSGTSYSLTISSMEAEDAATYYCQQWSSNPLTFGGGTKLEIK
notes: Mouse hybridoma monoclonal antibody tested as hybridoma supernatant and detected with anti-mouse IgG-HRP
B2: anti-CD40 antibody 41-J9 (antibody, V domains shown)
VH: DVQLQESGPDLVKPSQSLSLTCTVTGYSITSDYSWHWIRQFPGNKLEWMGYIYYSGSTNYNPSLKSRISITRDTSKNQFFLQLNSVTSEDTATYYCARFYYGWSYFDYWGQGTSLTVSS
VL: B1 VL
notes: as for B1
B3: anti-CD40 antibody 41-I22 (antibody, V domains shown)
VH: EVQLQQSGAVLVKPGASVRLSCTASGFNIKDTYIHWVKQRPEQGLEWIGKIDPANGNTKFDPKFQGKATIAADTSSNTAYLQLSSLTSEDTAVYYCARDYYGTIFPYWYFDVWGAGTTVTVSS
VL: QIVLTQSPAIMSASPGEKVTITCSASSSVSYMHWFQQKPGTSPKFWIYITSNLASGVPARFSGSGSGTSYSLTISRMEAEDAATYYCQQRSSYPLTFGAGTKLELK
notes: as for B1
B4: anti-CD40 antibody 10-K9 (antibody, V domains shown)
VH: EVQLVESGGDLVKPGGSLKLSCAASGFTFSSYGMSWVRQTPDKRLEWVATISSDGSHTYYPDSVKGRFTISRDIAKNTLYLQMSSLKSEDTAMYYCVRQGRYVPSFDVWGAGTTVTVSS
VL: DIVLTQSPATLSVTPGDSVSLSCRASQSIRNNLHWYQQKSHESPRLLIKDASQSISGTPSRFSGSGSGTDFTLSINSVETEDFGMYFCHQTNNWPFTFGSGTKLEIK
notes: as for B1
B5: anti-CD40 antibody 30-P15 (antibody, V domains shown)
VH: EVMLVESGGALVKPGGSLKLSCAASGFTFSNYAMSWVRQTPEKRLEWVATIGTSGSYTYYSDSVKGRFTISRDNARNTLYLQMTSLRSEDTAMYYCARRGYYNPTHAMDYWGQGTSVTVSS
VL: QAVVTQESALTTSPGETVTLTCRSSTGAVTTSNYANWVQEKPDHLFTGLIGGTNNRAPGVPARFSGSLIGDKAALTITGAQTEDEAIYFCALWYSNHLVFGGGTKLTVL
notes: as for B1
B6: anti-CD40 antibody 41-E17 (antibody, V domains shown)
VH: DVQLVESGGGLVQPGGSRKLSCAASGFTFSTFGMHWVRQAPEKGLEWVAYISGGSSTIYYADTVKGRFTISRDNPKNTLFLQMTSLRSEDTAMYYCVRPYGSVHYAMDYWGQGTSVTVSS
VL: DIQMTQTTSSLSASLGDRVTISCRASQDINNYLNWYQQKPDGTVKLLIYYTSRFHSGVPSRFSGSGSGTDYSLTISNLEQEDIATYFCQQGNTLPWTFGGGTKLDIK
notes: as for B1
B7: anti-CD40 antibody 12-O17 (antibody, V domains shown)
VH: QVQLQQSGAELMKPGASVKISCKATGYTFSTYWIEWVKQRPGHGLEWIGEILPGSGSTNYNENFKGKATFTADTSSNTAYMQLSSLTSEDSAVYFCARGGLYYYGGAMDYWGQGTSVTVSS
VL: DIVMSQSPSSLAVSVGEKVTMSCKSSQSLLYSGNQKNYLAWYQQKPGQSPKLLIYWASIRESGVPDRFTGSGSGTDFTLTISSVKAEDLAVYYCQQYYSYPYTFGGGTKVEIK
notes: as for B1
B8: anti-CD40 antibody 9-P1 (antibody, V domains shown)
VH: QVQLQQSGAELMKPGASVKISCKATGYTFSTYWIEWVKQRPGHGLEWIGEILPGSGSTNYNEKFRGKATFTADTSSNTAYMQLSSLTSEDSAVYYCARSYYTYDQGSWLAYWGQGTLVTVSA
VL: B7 VL with S22T, Y55N, I59T, F68L, T78S, V110L
notes: as for B1
B9: anti-CD40 antibody 26-I22 (antibody, V domains shown)
VH: QVQLQQPGAELVKPGASVKLSCKASGYTFINYWINWMRQRPGQGLEWIGNIYPGSSSTTYNEKFKSKAALTVDTSSSTAYMQLSSLTSDDSAVYFCARSVGYWYFDVWGAGTTVTVSS
VL: B7 VL with M21L, L30F, Y31F, Y38F, K51N, Y55F, I59T, Y102F, G106S, V110L
notes: as for B1
B10: anti-CD40 antibody 10-B8 (antibody, V domains shown)
VH: QVQLQQPGSVLVRPGASVKLSCKASGFTFATSWMHWAKERPGQGLEWIGQIHPNSGNTNYNEKFKGKATLTVDTSSSTAYVDLSSLTSEDSAVYYCARGADYAMDYWGQGTSVTVSS
VL: DVLMTQTPLSLPVSLGDQASISCRSSQSIVHSNGNTYLEWYLQKPGQSPKLLIYIVSNRFSGVPDRFSGSGSGTDFTLKISRVEAEDLGVYYCFQGSHVPWTFGGGTKLEIK
notes: as for B1

Target: T1, mouse CD40
Test: ELISA on recombinant mouse CD40 protein, hybridoma supernatant

Row | binding result | Binder
1 | no binding | B1
2 | no binding | B2
3 | no binding | B3
4 | no binding | B4
5 | no binding | B5
6 | no binding | B6
7 | no binding | B7

Target: T2, human CD40 (human, UniProt P25942 21-193)
T2 construct: Recombinant protein coated for ELISA; The primary screen used 'soluble, His-tagged human CD40 (full-length and IgC2)'; also called huCD40; hCD40; not shown: His tag
T2 sequence (P25942 21-193 limits assumed): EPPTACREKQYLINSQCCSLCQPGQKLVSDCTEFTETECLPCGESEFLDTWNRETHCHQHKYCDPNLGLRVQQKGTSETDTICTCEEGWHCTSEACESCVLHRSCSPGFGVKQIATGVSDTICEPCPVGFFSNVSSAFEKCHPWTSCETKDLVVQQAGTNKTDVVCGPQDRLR
Test: ELISA of subcloned hybridoma supernatants on hCD40, anti-mouse IgG-HRP detection
Experimental: Next, the hybridomas were selected for subcloning to identify monoclonal antibodies against CD40. Briefly, cells were plated at a 1 cell per well density in 384-well plates, confirmed by microscopy, and expanded. After expansion, supernatants were screened by ELISA against hCD40. The mAbs were detected using anti-mouse IgG-conjugated to HRP.

Row | binding result | Binder
8 | binds | B1
9 | binds | B2
10 | binds | B8
11 | binds | B3
12 | binds | B5
13 | binds | B6
14 | binds | B9
15 | binds | B7

Target: T2, human CD40
Test: ELISA on recombinant human CD40 protein, hybridoma supernatant

Row | binding result | Binder
16 | binds | B10
17 | binds | B4

Reference: patent publication US20250230253A1 (Memorial Sloan Kettering, published 2025)
